Data published in patent US20130243795A1 (Janssen / Centocor, published 2013).
Where two headings read alike, the source gives them in different places.

B1: C2177 (antibody, V domains shown)
VH: QVQLQQSGPELVKPGASVKISCKASGYAFSSSWMNWVKQRPGKGLEWIGRIYPGDGDTNYNGKFKGKATLTADKSSSTAYMQLSSLTSEDSAVYFCARSDYYGDYGFAYWGQGTLVTVSA
VL: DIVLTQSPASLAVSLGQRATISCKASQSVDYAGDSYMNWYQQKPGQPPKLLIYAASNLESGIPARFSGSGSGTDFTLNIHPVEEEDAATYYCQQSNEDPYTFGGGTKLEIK
notes: also called C2177 hybridoma mAb
B2: C2186 (antibody, V domains shown)
VH: QVQLQQPGAELVKPGASVKLSCKASGYTFTNYWMNWVKQRPGRGLEWIGRIHPSDSETHYNQNFKSKATLTVDKSSSTAYIQLSSLTSEDSAVYYCARPVLYGDYGFPCWGQGTLVTVSA
VL: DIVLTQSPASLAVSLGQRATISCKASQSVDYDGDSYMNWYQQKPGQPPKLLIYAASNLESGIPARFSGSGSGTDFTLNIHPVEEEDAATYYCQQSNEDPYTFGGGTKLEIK
B3: C2191 (antibody, V domains shown)
VH: EVKLVESGGGLVKPGGSLKLSCAASGFTFSSYTMSWVRQTPEKRLEWVAYISSGGGNTYYPDSVKGRFTISRDNARNTLYLQMSSLRSEDTAMYYCSRHRGNPFDYWGQGTTLTVSS
VL: DIVLTQSPASLAVSLGQRATISCRASKSVSTSGYSFMHWYQQKPGQPPKLLIYLASNLESGVPARFSGSGSGTDFTLNIHPVEEEDAATYYCQHSRELPWTFGGGTKLEIK
notes: also called C2191 hybridoma mAb
B4: M40 (antibody, human IgG1, V domains shown)
VH: QVQLQQSGPELVKPGASVKISCKASGYAFSSSWMNWVKQRPGKGLEWIGRIYPGDGDTNYNGKFKGKATLTADKSSSTAYMQLSSLTSEDSAVYFCARSDYYGDYGFAYWGQGTLVTVSA
VL: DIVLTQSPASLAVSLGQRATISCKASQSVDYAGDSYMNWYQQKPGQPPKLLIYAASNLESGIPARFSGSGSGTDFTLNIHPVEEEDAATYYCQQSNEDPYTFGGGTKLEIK
notes: chimeric; also called C2177 parent; C2177 parent chimera
B5: M69 (antibody, human IgG1, V domains shown)
VH: EVQLVQSGAEVKKPGESLKISCKGSGYAFSSSWMNWVRQMPGKGLEWMGRIYPGDGDTNYSPSFQGQVTISADKSISTAYLQWSSLKASDTAMYYCARSDYYGDYGFAYWGQGTLVTVSS
VL: DIVMTQSPDSLAVSLGERATINCKASQSVDYAGDSYMNWYQQKPGQPPKLLIYAASNLESGVPDRFSGSGSGTDFTLTISSLQAEDVAVYYCQQSNEDPYTFGQGTKLEIK
notes: also called H28/L35; C2177 HFR variant
B6: M41 (antibody, human IgG1, V domains shown)
VH: EVKLVESGGGLVKPGGSLKLSCAASGFTFSSYTMSWVRQTPEKRLEWVAYISSGGGNTYYPDSVKGRFTISRDNARNTLYLQMSSLRSEDTAMYYCSRHRGNPFDYWGQGTTLTVSS
VL: DIVLTQSPASLAVSLGQRATISCRASKSVSTSGYSFMHWYQQKPGQPPKLLIYLASNLESGVPARFSGSGSGTDFTLNIHPVEEEDAATYYCQHSRELPWTFGGGTKLEIK
notes: chimeric; also called C2191 parent; C2191 parent chimera
B7: M91 (antibody, human IgG1, V domains shown)
VH: QVQLVESGGGLVKPGGSLRLSCAASGFTFSSYTMSWIRQAPGKGLEWVSYISSGGGNTYYPDSVKGRFTISRDNAKNSLYLQMNSLRAEDTAVYYCARHRGNPFDYWGQGTLVTVSS
VL: DIQMTQSPSSLSASVGDRVTITCRASKSVSTSGYSFMHWYQQKPGKAPKLLIYLASNLESGVPSRFSGSGSGTDFTFTISSLQPEDIATYYCQHSRELPWTFGQGTKVEIK
notes: also called H31/L42; C2191 HFR variant

How the values were obtained:
[1] = molecular target: T1, Human CD27 ECD, monomeric soluble (construct limits not stated) (human, UniProt P26842 20-191); assay: Biacore SPR; mAb captured via anti-mouse Fc; CD27 ECD as analyte; 25 C
T1 construct: extracellular domain; target of the Biacore assays; also called monomeric soluble CD27; CD27-His
T1 sequence (P26842 20-191): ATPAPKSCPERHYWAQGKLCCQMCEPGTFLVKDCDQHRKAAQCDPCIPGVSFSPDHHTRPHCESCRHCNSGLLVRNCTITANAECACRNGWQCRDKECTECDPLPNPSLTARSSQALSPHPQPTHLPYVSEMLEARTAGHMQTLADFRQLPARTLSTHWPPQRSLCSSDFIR

[2] = molecular target: T2, Human CD27, full length on the cell surface (human, UniProt P26842 21-260); assay: cell-based or functional assay
[3] = molecular target: T3, Recombinant human CD27/Fc chimera (R&D Systems, Cat#382-CD) (human, UniProt P26842 20-191); assay: inhibition of IM-9 (CD70+) cell binding to immobilized CD27/Fc
T3 construct: extracellular domain; bought protein; also called huCD27-Fc; Hu CD27 Fc; Fc part of the bought chimera not given
T3 sequence (P26842 20-191, change not shown): as the sequence (P26842 20-191) above

[4] = molecular target: T2, Human CD27, full length on the cell …; assay: cell-based or functional assay; remark: listed apart in the source
[5] = molecular target: T1, Human CD27 ECD, monomeric soluble …; assay: Biacore SPR, purified mAb
[6] = molecular target: T4, Human CD27 ECD truncated (ECD 1-121, cleavage site, His6) (human); assay: ProteOn SPR; mAb captured via anti-human Fc; CD27 ECD as analyte
T4 construct: also called human CD27 ECD with His Tag; CD27-His
T4 chain: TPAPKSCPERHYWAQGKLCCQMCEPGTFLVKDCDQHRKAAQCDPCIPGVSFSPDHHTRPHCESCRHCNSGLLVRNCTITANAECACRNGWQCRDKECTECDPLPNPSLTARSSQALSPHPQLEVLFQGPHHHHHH

[7] = molecular target: T4, Human CD27 ECD truncated (ECD 1-121, …); assay: ELISA of culture supernatants; binding to CD27 ECD; signal relative to the parent
[8] = molecular target: T2, Human CD27, full length on the cell …; assay: cell-based or functional assay; remark: listed apart in the source
[9] = molecular target: T2, Human CD27, full length on the cell …; assay: cell-based or functional assay; remark: listed apart in the source
[10] = molecular target: T1, Human CD27 ECD, monomeric soluble …; assay: Biacore SPR, purified mAb; remark: listed apart in the source
[11] = molecular target: T2, Human CD27, full length on the cell …; assay: cell-based or functional assay; remark: listed apart in the source
[12] = molecular target: T1, Human CD27 ECD, monomeric soluble …; assay: Biacore SPR, purified mAb, CD27 ECD
[13] = molecular target: T2, Human CD27, full length on the cell …; assay: cell-based or functional assay; remark: listed apart in the source

Binder	Kd [1]	Plasma blast differentiation % Inhibition at 2.5 ug/ml [2]	T-Cell Proliferation % Inhibition at highest concentration (30 ug/ml) [2]	T-Cell Proliferation - CD4+ Cells IC50 [2]	IC50 [3]	Agonism at 50 ug/ml (fold-increase in reporter gene signal relative to isotype control) [4]	NF-kB reporter IC50 [4]	Kd [6]	ELISA signal [7]	NFkB IC50 [8]	further results
B1	3.07 nM	78%	75.4%	0.245 µg/mL	0.063 µg/mL	1.85 fold	0.04 µg/mL	–	–	–	–
B2	2.55 nM	93%	65.3%	0.775 µg/mL	0.059 µg/mL	2.55 fold	0.105 µg/mL	–	–	–	–
B3	2.62 nM	105%	58.3%	0.3 µg/mL	0.059 µg/mL	3.05 fold	0.08 µg/mL	–	–	–	–
B4	–	–	–	–	–	–	–	0.96 nM	1	0.14 nM	Kd [5]: 1.24 nM; koff [5]: 0.00132 s⁻¹; kon [5]: 1.06e+06 M⁻¹ s⁻¹; NF-kB Assay IC50 [9]: 0.466 nM
B5	–	–	–	–	–	–	–	0.77 nM	1.09	0.11 nM	–
B6	–	–	–	–	–	–	–	10.3 nM	1	0.3 nM	Kd [10]: 23.7 nM; koff [10]: 0.0103 s⁻¹; kon [10]: 435000 M⁻¹ s⁻¹; NF-kB Assay IC50 [11]: 2.3 nM; Kd [12]: 13.7 nM; NFkB IC50 [13]: 0.045 nM
B7	–	–	–	–	–	–	–	7.9 nM	1.09	0.28 nM	–
